One experiment deals with T1, human AxI ECD-His (human, UniProt P30530 26-451).
T1 construct: extracellular domain; also called human AxI ECD-His protein; Hu AxI
The experiment in a line: SPR (BIAcore-3000), IgG captured by anti-human IgG, human AxI ECD-His injected. Background: SPR reads the build-up and loss of mass on a sensor chip optically.

The target in another experiment is T2, human Tyro-3Fc (human, UniProt Q06418 41-428, limits assumed).
T2 sequence (looked up): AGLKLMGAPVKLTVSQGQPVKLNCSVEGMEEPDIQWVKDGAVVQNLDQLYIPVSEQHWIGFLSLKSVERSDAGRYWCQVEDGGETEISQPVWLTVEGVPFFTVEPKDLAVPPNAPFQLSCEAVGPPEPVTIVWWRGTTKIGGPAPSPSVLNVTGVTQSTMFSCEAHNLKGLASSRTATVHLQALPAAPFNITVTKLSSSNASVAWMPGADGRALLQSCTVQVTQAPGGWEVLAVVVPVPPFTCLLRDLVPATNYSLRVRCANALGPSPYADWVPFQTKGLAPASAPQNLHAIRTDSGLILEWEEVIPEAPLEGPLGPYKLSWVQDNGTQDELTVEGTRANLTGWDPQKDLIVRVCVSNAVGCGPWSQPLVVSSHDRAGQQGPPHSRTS
As to the kind of experiment: ELISA, Fc fusion captured on anti-human IgG Fc. On the technique in general: In an ELISA, binding on a coated surface is turned into a signal by an enzyme label.

Another experiment addresses T3, human MerFc (human, UniProt Q12866 21-499, limits assumed).
T3 sequence (looked up): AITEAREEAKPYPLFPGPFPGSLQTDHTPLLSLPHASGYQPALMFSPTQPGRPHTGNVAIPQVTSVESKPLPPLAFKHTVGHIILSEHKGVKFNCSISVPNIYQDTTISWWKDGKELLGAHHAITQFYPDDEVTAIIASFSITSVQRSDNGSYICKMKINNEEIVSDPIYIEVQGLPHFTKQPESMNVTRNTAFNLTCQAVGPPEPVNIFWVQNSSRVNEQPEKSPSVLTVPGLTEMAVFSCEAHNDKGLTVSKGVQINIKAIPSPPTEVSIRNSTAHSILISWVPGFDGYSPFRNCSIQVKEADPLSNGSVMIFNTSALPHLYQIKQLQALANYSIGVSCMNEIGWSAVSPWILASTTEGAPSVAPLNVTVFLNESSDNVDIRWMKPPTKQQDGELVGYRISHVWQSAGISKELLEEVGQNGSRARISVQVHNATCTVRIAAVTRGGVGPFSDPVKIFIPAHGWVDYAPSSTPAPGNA
The experiment in a line: ELISA, Fc fusion captured on anti-human IgG Fc.

The target in experiment [1] is T4, murine AxI ECD-Fc fusion protein (murine, UniProt Q00993 19-445).
T4 construct: extracellular domain; also called murine AxIFc; mouse AxI.Fc
T4 sequence (Q00993 19-445): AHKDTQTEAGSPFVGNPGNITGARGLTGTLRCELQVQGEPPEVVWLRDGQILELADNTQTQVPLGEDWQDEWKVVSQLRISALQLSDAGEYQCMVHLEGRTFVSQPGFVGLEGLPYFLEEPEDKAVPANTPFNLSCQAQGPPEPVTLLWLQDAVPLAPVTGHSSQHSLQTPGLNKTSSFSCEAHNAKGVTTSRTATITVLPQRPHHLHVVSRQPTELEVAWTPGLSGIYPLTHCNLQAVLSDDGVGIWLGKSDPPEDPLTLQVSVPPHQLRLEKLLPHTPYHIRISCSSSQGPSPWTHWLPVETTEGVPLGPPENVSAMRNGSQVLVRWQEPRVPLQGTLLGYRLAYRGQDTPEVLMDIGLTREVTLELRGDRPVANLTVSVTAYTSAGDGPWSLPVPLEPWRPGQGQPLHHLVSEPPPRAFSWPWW
As to the kind of experiment: SPR (BIAcore-3000), murine AxI ECD-Fc captured by anti-human IgG, anti-Axl Fab fragment injected (per methods).

For orientation: Kd means a measure of binding affinity in units of concentration.

B1: YW327.6S2 (antibody, V domains shown)
VH: EVQLVESGGGLVQPGGSLRLSCAASGFSLSGSWIHWVRQAPGKGLEWVGWINPYRGYAYYADSVKGRFTISADTSKNTAYLQMNSLRAEDTAVYYCAREYSGWGGSSVGYAMDYWGQGTLV
VL: DIQMTQSPSSLSASVGDRVTITCRASQDVSTAVAWYQQKPGKAPKLLIYSASFLYSGVPSRFSGSGSGTDFTLTISSLQPEDFATYYCQQSYTTPPTFGQGTKVEIKR
notes: also called AxI mAb YW327.6S2
In the experiment with human AxI ECD-His, B1 displayed a Kd of approximately 1 nM. For the same molecule, the binding result in the experiment with human Tyro-3Fc and with human MerFc was “no binding” in each case.

B2: YW327.6S2 Fab fragment (Fab, V domains shown)
VH: B1 VH
VL: B1 VL
notes: also called anti-Axl Fab fragment
In experiment [1], B2 yielded a Kd of 0.545 nM. In other words, the sub-nanomolar range.

(Values after WO2011014457A1 (dated 2011).)
